Our source for the enrichment values is publication PMC13397619.

B1: NLV2 TCR alpha chain (CDR3α only) (parent)
chain: AGPMKTSYDKVI

Variants of B1 are the subject of the first assay. In words: T-Switch: Jurkat TCRβ−/− cells expressing a CDR3 saturation-mutagenesis library, stained with two peptide-HLA-A*02:01 tetramers (original and novel peptide) plus anti-CD3, FACS-sorted into four gates, gDNA sequenced. Particulars: with both tetramers (double-negative gate, binds neither): HLA-A*02:01 with … and with …, tetramers 1 µg/mL, 30 min on ice, SP, DP and SW gates expanded about 10 days between rounds ('two to three rounds of selection' in the Methods), gate DN: OPPOSITE: higher = more of the variant in the gate that binds neither peptide = LESS binding (or no expression; inferred). Fold enrichment of the CDR3 variant in one FACS gate of a two-tetram, unresolved parent, parent is a CDR3 fragment, scale: fold enrichment, numbering: sequential-on-construct, sequence starts at 1.
In the case of […] (CDR3 as printed); D9L derived by comparing it with the table's wild-type CDR3 AGPMKTSYDKVI, the enrichment came out at 0.93.

For the variant […] (CDR3 as printed); K10A derived by comparing it with the table's wild-type CDR3 AGPMKTSYDKVI, the enrichment turned out to be 0.862.

Consider […] (CDR3 as printed); G2D derived by comparing it with the table's wild-type CDR3 AGPMKTSYDKVI, for which the enrichment came out at 1.02.

As to […] (CDR3 as printed); S7Q derived by comparing it with the table's wild-type CDR3 AGPMKTSYDKVI, the enrichment worked out at 0.986.

Take […] (CDR3 as printed); I12W derived by comparing it with the table's wild-type CDR3 AGPMKTSYDKVI: the enrichment stood at 0.924.

With […] (CDR3 as printed); K10N derived by comparing it with the table's wild-type CDR3 AGPMKTSYDKVI, the enrichment was determined as 1.16.

In the case of […] (CDR3 as printed); K10R derived by comparing it with the table's wild-type CDR3 AGPMKTSYDKVI, the enrichment was determined as 0.909.

Consider […] (CDR3 as printed); G2R derived by comparing it with the table's wild-type CDR3 AGPMKTSYDKVI, for which the enrichment was 0.977.

Consider […] (CDR3 as printed); T6Q derived by comparing it with the table's wild-type CDR3 AGPMKTSYDKVI, for which the enrichment came out at 1.14.

For […] (CDR3 as printed); P3G derived by comparing it with the table's wild-type CDR3 AGPMKTSYDKVI, the enrichment came to 1.

On to […] (CDR3 as printed); P3M derived by comparing it with the table's wild-type CDR3 AGPMKTSYDKVI, for which the enrichment is 1.17.

As to […] (CDR3 as printed); A1V derived by comparing it with the table's wild-type CDR3 AGPMKTSYDKVI, the enrichment stood at 0.809.

For […] (CDR3 as printed); M4P derived by comparing it with the table's wild-type CDR3 AGPMKTSYDKVI, the enrichment was 1.

As to […] (CDR3 as printed); P3A derived by comparing it with the table's wild-type CDR3 AGPMKTSYDKVI, the enrichment is 1.21.

With […] (CDR3 as printed); V11L derived by comparing it with the table's wild-type CDR3 AGPMKTSYDKVI, the enrichment is 0.656.

Consider […] (CDR3 as printed); P3T derived by comparing it with the table's wild-type CDR3 AGPMKTSYDKVI, for which the enrichment is 0.962.

Consider […] (CDR3 as printed); S7A derived by comparing it with the table's wild-type CDR3 AGPMKTSYDKVI, for which the enrichment is 0.945.

Regarding […] (CDR3 as printed); K5Y derived by comparing it with the table's wild-type CDR3 AGPMKTSYDKVI, the enrichment was determined as 0.737.

For […] (CDR3 as printed); A1S derived by comparing it with the table's wild-type CDR3 AGPMKTSYDKVI, the enrichment amounted to 0.736.

Regarding […] (CDR3 as printed); T6E derived by comparing it with the table's wild-type CDR3 AGPMKTSYDKVI, the enrichment amounted to 1.78.

On to […] (CDR3 as printed); M4S derived by comparing it with the table's wild-type CDR3 AGPMKTSYDKVI, for which the enrichment was found to be 0.52.

For […] (CDR3 as printed); K10Q derived by comparing it with the table's wild-type CDR3 AGPMKTSYDKVI, the enrichment is 0.706.

[…] (CDR3 as printed); M4I derived by comparing it with the table's wild-type CDR3 AGPMKTSYDKVI: the enrichment came to 0.318.

As to […] (CDR3 as printed); D9N derived by comparing it with the table's wild-type CDR3 AGPMKTSYDKVI, the enrichment was 1.01.

The assay is the same for the next values; noted with them: with both tetramers (double-positive gate): HLA-A*02:01 with … and with …, tetramers 1 µg/mL, 30 min on ice, SP, DP and SW gates expanded about 10 days between rounds ('two to three rounds of selection' in the Methods), gate DP: higher = more of the variant in the gate that binds both peptides. Fold enrichment of the CDR3 variant in one FACS gate of a two-tetramer stain. SP/DP/SW gates were expanded and re-sorted bef, unresolved parent, parent is a CDR3 fragment, scale: fold enrichment, numbering: sequential-on-construct, sequence starts at 1.
For […] (CDR3 as printed); D9L derived by comparing it with the table's wild-type CDR3 AGPMKTSYDKVI, the enrichment is 0.

Consider […] (CDR3 as printed); K10A derived by comparing it with the table's wild-type CDR3 AGPMKTSYDKVI, for which the enrichment turned out to be 0.

Regarding […] (CDR3 as printed); G2D derived by comparing it with the table's wild-type CDR3 AGPMKTSYDKVI, the enrichment is 0.

Take […] (CDR3 as printed); S7Q derived by comparing it with the table's wild-type CDR3 AGPMKTSYDKVI: the enrichment worked out at 0.

For […] (CDR3 as printed); I12W derived by comparing it with the table's wild-type CDR3 AGPMKTSYDKVI, the enrichment turned out to be 0.

For the variant […] (CDR3 as printed); K10N derived by comparing it with the table's wild-type CDR3 AGPMKTSYDKVI, the enrichment was 0.

As for […] (CDR3 as printed); K10R derived by comparing it with the table's wild-type CDR3 AGPMKTSYDKVI, the enrichment stood at 0.

[…] (CDR3 as printed); G2R derived by comparing it with the table's wild-type CDR3 AGPMKTSYDKVI: the enrichment was 0.

Regarding […] (CDR3 as printed); T6Q derived by comparing it with the table's wild-type CDR3 AGPMKTSYDKVI, the enrichment came out at 0.

On to […] (CDR3 as printed); P3G derived by comparing it with the table's wild-type CDR3 AGPMKTSYDKVI, for which the enrichment worked out at 0.

As to […] (CDR3 as printed); P3M derived by comparing it with the table's wild-type CDR3 AGPMKTSYDKVI, the enrichment worked out at 0.

For the variant […] (CDR3 as printed); A1V derived by comparing it with the table's wild-type CDR3 AGPMKTSYDKVI, the enrichment turned out to be 0.

For […] (CDR3 as printed); M4P derived by comparing it with the table's wild-type CDR3 AGPMKTSYDKVI, the enrichment came out at 0.

In the case of […] (CDR3 as printed); P3A derived by comparing it with the table's wild-type CDR3 AGPMKTSYDKVI, the enrichment was 0.

Regarding […] (CDR3 as printed); V11L derived by comparing it with the table's wild-type CDR3 AGPMKTSYDKVI, the enrichment came to 0.

On to […] (CDR3 as printed); P3T derived by comparing it with the table's wild-type CDR3 AGPMKTSYDKVI, for which the enrichment is 0.

In the case of […] (CDR3 as printed); S7A derived by comparing it with the table's wild-type CDR3 AGPMKTSYDKVI, the enrichment came to 0.

Regarding […] (CDR3 as printed); K5Y derived by comparing it with the table's wild-type CDR3 AGPMKTSYDKVI, the enrichment was 0.

On to […] (CDR3 as printed); A1S derived by comparing it with the table's wild-type CDR3 AGPMKTSYDKVI, for which the enrichment worked out at 0.

Take […] (CDR3 as printed); T6E derived by comparing it with the table's wild-type CDR3 AGPMKTSYDKVI: the enrichment amounted to 0.

For […] (CDR3 as printed); M4S derived by comparing it with the table's wild-type CDR3 AGPMKTSYDKVI, the enrichment came out at 0.

For […] (CDR3 as printed); K10Q derived by comparing it with the table's wild-type CDR3 AGPMKTSYDKVI, the enrichment came out at 0.

[…] (CDR3 as printed); M4I derived by comparing it with the table's wild-type CDR3 AGPMKTSYDKVI: the enrichment was 0.

In the case of […] (CDR3 as printed); D9N derived by comparing it with the table's wild-type CDR3 AGPMKTSYDKVI, the enrichment was determined as 0.
